# Values of other authors as cited in article PMC4489423.
# Like-named read-outs stand apart in the source and are kept apart here.
# Columns and labels:
# [1] = molecular target: IL-10R2 ECD (Homo sapiens) (UniProt Q08334); assay: SPR
# [2] = molecular target: IL-10R1 ECD (Homo sapiens) (UniProt Q13651); assay: SPR
# [3] = molecular target: IL-10R2 ECD (Homo sapiens) (UniProt Q08334)
# Chain of IL-10 (P22301 19-178): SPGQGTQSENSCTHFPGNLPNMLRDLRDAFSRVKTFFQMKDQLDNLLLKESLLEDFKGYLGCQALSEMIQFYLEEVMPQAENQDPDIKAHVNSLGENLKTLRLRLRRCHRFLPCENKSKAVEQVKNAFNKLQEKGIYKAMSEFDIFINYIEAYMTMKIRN
# Chain of IL-10R2 ECD (Homo sapiens) (Q08334 20-220): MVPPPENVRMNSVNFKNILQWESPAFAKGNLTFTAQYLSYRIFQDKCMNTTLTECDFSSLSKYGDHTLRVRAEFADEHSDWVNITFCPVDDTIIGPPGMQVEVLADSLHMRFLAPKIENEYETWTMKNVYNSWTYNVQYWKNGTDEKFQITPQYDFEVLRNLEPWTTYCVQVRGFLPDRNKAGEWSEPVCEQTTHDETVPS
# Chain of IL-10/IL-10R1 complex (P22301 19-178): as the sequence (P22301 19-178) above
# Chain of IL-10/IL-10R1 complex (Q13651 22-235, further chain): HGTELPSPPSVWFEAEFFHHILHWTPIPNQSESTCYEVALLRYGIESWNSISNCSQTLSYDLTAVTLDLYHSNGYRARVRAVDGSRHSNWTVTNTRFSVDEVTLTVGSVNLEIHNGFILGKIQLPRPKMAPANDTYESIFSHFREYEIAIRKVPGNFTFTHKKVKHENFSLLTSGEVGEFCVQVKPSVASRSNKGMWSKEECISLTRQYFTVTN
# Chain of IL-10R1 ECD (Homo sapiens) (Q13651 22-235): as the sequence (Q13651 22-235, further chain) above
Substance,Kd [1],Kd [2],Kd [3]
IL-10 (from UniProt P22301),3000 µM,0.00024 µM,–
IL-10/IL-10R1 complex (from UniProt P22301),–,–,234 µM
